Laboratory results reported in publication PMC3319784.

B1: first Sam domain of Odin (Odin-Sam1) (domain or fragment)
chain: ISGLRTLEQSVGEWLESIGLQQYESKLLLNGFDDVHFLGSNVMEEQDLRDIGISDPQHRRKLLQAARSLPKVKALGYDGN

Legend:
[1] = biological target: first Sam domain of Odin (Odin-Sam1) (human) (UniProt Q92625); test: ITC
[2] = biological target: Sam domain of the EphA2 receptor (EphA2-Sam), wild type (human) (UniProt P29317); test: SPR

Molecule | Kd [1] [nM] | stoichiometry N [1] | Kd [2] [µM]
Sam domain of the EphA2 receptor (EphA2-Sam), wild type (from UniProt P29317 902-976) (domain or fragment) | 620 | 1 | 
B1 |  |  | 5.5
